Test results reported in publication PMC2878198 (Journal of the American Chemical Society, 2009).

B1: LovD (Aspergillus terreus) (protein)
chain: MGSIIDAAAAADPVVLMETAFRKAVKSRQIPGAVIMARDCSGNLNYTRCFGARTVRRDECNQLPPLQVDTPCRLASATKLLTTIMALQCMERGLVDLDETVDRLLPDLSAMPVLEGFDDAGNARLRERRGKITLRHLLTHTSGLSYVFLHPLLREYMAQGHLQSAEKFGIQSRLAPPAVNDPGAEWIYGANLDWAGKLVERATGLDLEQYLQENICAPLGITDMTFKLQQRPDMLARRADQTHRNSADGRLRYDDSVYFRADGEECFGGQGVFSGPGSYMKVLHSLLKRDGLLLQPQTVDLMFQPALEPRLEEQMNQHMDASPHINYGGPMPMVLRRSFGLGGIIALEDLDGENWRRKGSLTFGGGPNIVWQIDPKAGLCTLAFFQLEPWNDPVCRDLTRTFEHAIYAQYQQG

Key:
[1] = biological target: LovF (Aspergillus terreus, UniProt Q9Y7D5); experiment: FTMS of ACP-bound diketide; format: biochemical; settings: with SAM and NADPH; covalent loading on ACP
Chain of LovF (Q9Y7D5 whole entry): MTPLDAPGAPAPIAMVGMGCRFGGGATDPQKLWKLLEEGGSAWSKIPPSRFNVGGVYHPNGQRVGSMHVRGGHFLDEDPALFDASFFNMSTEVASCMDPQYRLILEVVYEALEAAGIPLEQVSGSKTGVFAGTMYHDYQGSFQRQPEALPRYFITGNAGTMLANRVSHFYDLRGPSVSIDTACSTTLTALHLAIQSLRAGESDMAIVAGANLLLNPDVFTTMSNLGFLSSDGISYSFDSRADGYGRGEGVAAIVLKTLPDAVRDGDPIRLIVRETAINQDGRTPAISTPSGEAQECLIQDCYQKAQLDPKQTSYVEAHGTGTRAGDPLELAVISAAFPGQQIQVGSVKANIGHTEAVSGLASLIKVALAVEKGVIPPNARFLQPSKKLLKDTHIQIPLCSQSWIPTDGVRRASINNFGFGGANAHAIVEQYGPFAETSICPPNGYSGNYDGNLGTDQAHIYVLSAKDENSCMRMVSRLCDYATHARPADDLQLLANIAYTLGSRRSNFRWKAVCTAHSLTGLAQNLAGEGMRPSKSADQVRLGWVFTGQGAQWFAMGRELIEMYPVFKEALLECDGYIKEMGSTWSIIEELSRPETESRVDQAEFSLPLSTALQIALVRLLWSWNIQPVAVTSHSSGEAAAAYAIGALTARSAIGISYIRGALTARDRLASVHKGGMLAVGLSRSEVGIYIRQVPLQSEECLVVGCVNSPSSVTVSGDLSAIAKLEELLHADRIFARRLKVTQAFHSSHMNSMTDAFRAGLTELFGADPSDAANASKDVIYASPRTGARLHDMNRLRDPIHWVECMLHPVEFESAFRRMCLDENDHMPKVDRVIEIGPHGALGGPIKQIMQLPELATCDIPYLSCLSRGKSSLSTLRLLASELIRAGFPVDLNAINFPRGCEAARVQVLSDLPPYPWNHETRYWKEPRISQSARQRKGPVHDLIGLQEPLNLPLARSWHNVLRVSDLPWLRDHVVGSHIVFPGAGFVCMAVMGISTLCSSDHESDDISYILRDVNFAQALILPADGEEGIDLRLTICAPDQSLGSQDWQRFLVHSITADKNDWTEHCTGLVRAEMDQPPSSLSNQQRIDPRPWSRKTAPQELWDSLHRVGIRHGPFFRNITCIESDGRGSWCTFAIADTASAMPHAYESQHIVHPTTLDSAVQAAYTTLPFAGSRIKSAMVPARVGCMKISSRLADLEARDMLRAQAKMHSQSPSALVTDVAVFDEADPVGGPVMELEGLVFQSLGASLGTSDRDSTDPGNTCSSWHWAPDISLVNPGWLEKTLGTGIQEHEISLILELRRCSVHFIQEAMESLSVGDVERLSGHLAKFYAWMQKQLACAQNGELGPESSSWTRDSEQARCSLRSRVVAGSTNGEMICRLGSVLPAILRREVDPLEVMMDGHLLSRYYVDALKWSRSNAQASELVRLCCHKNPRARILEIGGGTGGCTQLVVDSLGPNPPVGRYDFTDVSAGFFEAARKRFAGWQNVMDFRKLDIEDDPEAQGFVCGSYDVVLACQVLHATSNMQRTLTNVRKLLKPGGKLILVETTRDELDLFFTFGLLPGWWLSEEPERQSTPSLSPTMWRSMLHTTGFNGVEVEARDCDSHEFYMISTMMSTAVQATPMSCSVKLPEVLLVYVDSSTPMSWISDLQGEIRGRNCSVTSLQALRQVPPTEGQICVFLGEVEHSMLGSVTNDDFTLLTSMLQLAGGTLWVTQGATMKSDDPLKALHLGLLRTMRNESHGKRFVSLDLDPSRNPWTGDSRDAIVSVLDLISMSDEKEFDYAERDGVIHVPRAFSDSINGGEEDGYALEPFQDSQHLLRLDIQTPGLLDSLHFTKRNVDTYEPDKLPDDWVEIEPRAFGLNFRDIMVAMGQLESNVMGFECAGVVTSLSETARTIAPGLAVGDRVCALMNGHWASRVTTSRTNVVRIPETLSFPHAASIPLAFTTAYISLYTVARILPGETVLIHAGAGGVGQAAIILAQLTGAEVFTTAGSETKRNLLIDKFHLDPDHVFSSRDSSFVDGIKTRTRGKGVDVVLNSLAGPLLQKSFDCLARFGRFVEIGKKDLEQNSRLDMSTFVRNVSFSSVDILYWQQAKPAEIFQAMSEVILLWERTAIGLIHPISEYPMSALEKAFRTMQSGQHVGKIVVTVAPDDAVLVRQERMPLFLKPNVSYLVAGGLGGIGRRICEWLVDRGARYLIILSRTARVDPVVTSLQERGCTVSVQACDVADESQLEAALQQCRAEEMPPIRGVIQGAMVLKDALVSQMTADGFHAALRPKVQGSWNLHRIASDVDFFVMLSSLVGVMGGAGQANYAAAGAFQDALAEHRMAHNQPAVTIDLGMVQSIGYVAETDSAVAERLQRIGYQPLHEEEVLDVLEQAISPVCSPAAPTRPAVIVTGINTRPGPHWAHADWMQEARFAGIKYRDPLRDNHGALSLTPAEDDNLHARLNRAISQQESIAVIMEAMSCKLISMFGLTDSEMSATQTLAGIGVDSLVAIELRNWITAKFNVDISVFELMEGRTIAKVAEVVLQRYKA

[2] = substrate: CC[C@H](C)C(=O)SCCNC(C)=O; experiment: initial velocity of lovastatin formation by HPLC; format: biochemical, Aspergillus terreus; settings: acyl donor; acyl acceptor monacolin J
[3] = substrate: CC[C@H](C)C(=O)SCCNC(=O)CCNC(=O)[C@H](O)C(C)(C)COP(=O)(O)OP(=O)(O)OC[C@H]1O[C@@H](n2cnc3c(N)ncnc32)[C@H](O)[C@@H]1OP(=O)(O)O; experiment: initial velocity of lovastatin formation by HPLC; format: biochemical, Aspergillus terreus; settings: acyl donor; acyl acceptor monacolin J

Molecule | FTMS of ACP-bound diketide; LC-MS of product released by LovD [1] | Km [2] | kcat [2] | kcat/Km [2] | Km [3] | kcat [3] | kcat/Km [3]
CC(C)(COP(=O)(O)OP(=O)(O)OC[C@H]1O[C@@H](n2cnc3c(N)ncnc32)[C@H](O)[C@@H]1OP(=O)(O)O)[C@@H](O)C(=O)NCCC(=O)NCCSC(=O)CC(=O)O [malonyl-CoA] | we incubated LovF with malonyl-CoA, SAM and NADPH | – | – | – | – | – | –
B1 | – | 9.2 ± 0.9 mM | 0.0004 ± 1.67e-05 s⁻¹ | 0.0267 M⁻¹ s⁻¹ | 2.5 ± 0.31 mM | 0.00283 ± 0.000167 s⁻¹ | 1.15 M⁻¹ s⁻¹
